Reference: the supplement of paper PMC9170038

Test system: K4 kissing-loop RNA reporter
Assay: apparent KD of K4 kissing-loop reporter; higher = weaker reporter binding
Settings: Eterna round: R107
Description: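 RNA-MaP round R107: designed RNA switches with theophylline, tryptophan, arginine or FMN aptamers are transcribed on-chip within common flanks. They are titrated with a labelled K4 kissing-loop RNA reporter in RNA-MaP buffer (100 mM Tris pH 7.5, 80 mM KCl, 4 mM MgCl2), without ligand or with the indicated ligand. Median apparent KD per design.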

[1] = input ligand: theophylline 20 uM
[2] = input ligand: tryptophan 2.4 mM
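Also: bound reporter read as fluorescence of individual clusters on recovered sequencing chips by microscopy, with normalized cluster intensities fitted with a binding model.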

Sequence | apparent KD of K4 kissing-loop reporter (input ligand: FMN 200 uM) [nM] | apparent KD of K4 kissing-loop reporter (input ligand: arginine 13.2 mM) [nM] | apparent KD of K4 kissing-loop reporter (input ligand: none) [nM] | apparent KD of K4 kissing-loop reporter [1] [nM] | apparent KD of K4 kissing-loop reporter [2] [nM]
AAGCAGUCACUCGACGCCAUCGAAGAUGGGCGAGGACCGGUACGGCCGCCACUCGGAGUGAUGUUCUGAUGACUGCAAAAUAAAA [MatMod 8 - Jieux - Exclusion - Tryptophan A] | 119 | 52.7 | 118 | 156 | 94.3
AAGGCAUUCAGAAGGAGCGUGGUUUAAUCAUUAAUAUUUUUUACGAGUGAUGUUCGUAAUUCACAGGUAGGUCGCUGAAUAAUAA [JR_ExcArginiB_Sub008] | 123 | 136 | 128 | 134 | 114
AAGGCCAGUGAUGUUGGCUUAACCUUCGAUACCAGAACCGAUCGUUUCCCUUGGCAGCGAACACAAUACCUCACAGCGUUAAGUA [theeternabot_sameState_KL_Theo_A_8] | 125 | 134 | 125 | 149 | 114
AAGGCGUCGAGUUUGGUGGCGCCAACAGAUACCAGAUUACCUCCAAUCCCUUGGCAGCUGGCUUGAGAGUGAUGUUUUCAAAAGU [theeternabot_sameState_KL_Theo_A_33] | 532 | 447 | 627 | 528 | 349
AAGGGCUAGGCGGCCGCCACUGGUUGUGAACACAUACGAGCCAGUGAUGUUGGUAUUGUGUGCGGCAGGACCGGGCCUAGCCGAA [Exclusion - Tryptophan B (Freestyle 23)] | 360 | 299 | 346 | 300 | 322
AAGGUAUCACCAACUUGUAACAUAGGUGAUACCAGCAUCGAAAGAUGCCCUUGGCAGCACCAACUUGCAGUGAUGUUGCAAGUAA [(T)'-(H)'-(T1)-(T2)-(H1)-(H2)_Design11] | 166 | 140 | 152 | 152 | 144
AAGGUCACCACUACAGUGAUGUUGUAGGAGCAGGAUAUGCAGAAAUGCAGAAGGGCUCGCUCCAGGUGACCGAAUGAAACAUUCA [Omei KL FMN A SS A v4] | 217 | 341 | 382 | 325 | 381
AAGGUCACUGCUACAGUGAUGUUGUGGGAGCAGGAUAUGCAGAAAUGCAGAAGGGCUCGCUCCAGGUGACCGAAUGAAACAUUCA [whbob_SS_FMNA__2th175] | 1070 | 826 | 1500 | 887 | 1000
AAGGUUGUGCAUGGGAGUGAUGUUCCCAAGCAGGAUAUCGCUCACGCGAGAAGGGCUAGCACAACCGCUCAAGAAACUUGAGCAA [Omei KL FMN A SS C v5] | 121 | 118 | 147 | 132 | 120
AAGUACACGAUAGUGUACACCUAGUGAUGUUAGGAUAUGCAGAUAUGCAGAAGGAACGAGUCAUCUGACAAUAGUCGGAUGACAA [FmnAX 8 #OpenEnded #K4Early] | 564 | 70.2 | 100 | 103 | 82.4
AAGUCUCGUUAAUUCGAGGUUGCGAUCGAUACCAGUAGCGAGAGGUACCCUUGGCAGCGAAGUGAGUGAUGUUCAUGAAAGAAGA [KL-XTheoA13] | 59.8 | 101 | 107 | 113 | 68.6
AAGUGUCAUUAGACACACUGAUGUAUAAACUAGGAUAUGCUGAUAAGCAGAAGGAGUGAUGUUCCUUUCAACAUCAGAAUUAAAU [KL-XFMN-A1] | 270 | 145 | 155 | 153 | 126
AAGUGUGUGGCGGCCGCCACUAGAAUCCAGUGAUGUUGGAGAUAUCUCGUAAGAGAUAUCCGCCAUAGGACCGGGCCAUAUAGAA [Same State - Tryptophan B (Freestyle 15)] | 981 | 720 | 1260 | 413 | 771
AAGUGUGUGGCGGCCGCCACUAGAAUCCAGUGAUGUUGGAGUAAUCAAAUAAAUGAUAAUCAACAUAGGACCGGGCCAUAUAGAA [Same State - Tryptophan B (Freestyle 3)] | 345 | 307 | 349 | 351 | 309
AAGUGUGUGGCGGCCGCCACUAGGAUCCAGUGAUGUUGGAGAUAUCUCGUAAGAGAUAUCCGCCAUAGGACCGGGCCAUAUAGAA [Same State - Tryptophan B (Freestyle 16)] | 862 | 423 | 388 | 161 | 176
AAGUGUGUGGCGGCCGCCACUAGUAUCCAGUGAUGUUGGAGAUAUCACGUAAGUGAUAUCCAACAUAGGACCGGGCCAUAUAGAA [Same State - Tryptophan B (Freestyle 17)] | 145 | 78.3 | 101 | 189 | 93.1
AAGUUUUAUAAACUCAUGGUUUCGACAGAUACCAGCUUCGAGAGGAGCCCUUGGCAGCUGCAUGAGUGAUGUUCAUGUACGAAGA [KL-XTheoA8] | 377 | 362 | 480 | 416 | 359
AAUAAAAUCACGGCCGCCACUGAUGCUAAUAUUGGCAGUGAUGUUGCUAUGUAUAUUUUAUUUGACAGGACCGGGUGAAUAUUUA [#24 K4 Tryptophan B Exclusion] | 224 | 198 | 245 | 263 | 137
AAUAAAAUCACGGCCGCCACUGAUGUUAAUAUUAGCAGUGAUGUUGCUAUGUCGUUUUUCUUUAACAGGACCGGGUGAAUAUUUA [#22 K4 Tryptophan B Exclusion] | 156 | 150 | 170 | 171 | 148
AAUAAAAUCACGGCCGCCACUGAUUAUUUUAUUAGGAGUGAUGUUCCUAUGACAGUAUGCCUUAACAGGACCGGGUGAAUAUUUA [#19 K4 Tryptophan B Exclusion] | 122 | 125 | 144 | 143 | 156
